Experimental findings from patent US20230265151A1, “GIP/GLP1 CO-AGONIST COMPOUNDS” (priority 2020, published 2023) are described below.

Holding throughout (assay): cell-based or functional assay
Test [1] deals with human glucagon receptor (human) (UniProt P47871).
Test [2] concerns the target T1, human GIP receptor (human) (UniProt P48546).
T1 sequence (looked up): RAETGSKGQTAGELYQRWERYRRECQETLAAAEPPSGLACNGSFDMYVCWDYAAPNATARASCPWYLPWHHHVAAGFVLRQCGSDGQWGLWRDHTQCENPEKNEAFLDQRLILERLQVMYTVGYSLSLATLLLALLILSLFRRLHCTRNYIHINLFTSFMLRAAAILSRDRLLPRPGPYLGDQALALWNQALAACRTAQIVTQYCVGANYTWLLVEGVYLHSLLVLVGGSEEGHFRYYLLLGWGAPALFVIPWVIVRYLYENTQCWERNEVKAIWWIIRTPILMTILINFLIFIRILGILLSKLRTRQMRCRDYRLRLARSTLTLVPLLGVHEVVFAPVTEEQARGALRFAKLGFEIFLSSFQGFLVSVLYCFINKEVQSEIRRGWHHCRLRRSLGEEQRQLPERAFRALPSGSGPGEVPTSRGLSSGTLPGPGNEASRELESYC

In test [3] the target is hGLP-1R (Homo sapiens, UniProt P43220).
Test [4] concerns the target human GLP-1 receptor (human, UniProt P43220 24-463).
For test [5], the target named is T2, human GIP receptor (human, UniProt P48546 22-466).
T2 sequence (looked up): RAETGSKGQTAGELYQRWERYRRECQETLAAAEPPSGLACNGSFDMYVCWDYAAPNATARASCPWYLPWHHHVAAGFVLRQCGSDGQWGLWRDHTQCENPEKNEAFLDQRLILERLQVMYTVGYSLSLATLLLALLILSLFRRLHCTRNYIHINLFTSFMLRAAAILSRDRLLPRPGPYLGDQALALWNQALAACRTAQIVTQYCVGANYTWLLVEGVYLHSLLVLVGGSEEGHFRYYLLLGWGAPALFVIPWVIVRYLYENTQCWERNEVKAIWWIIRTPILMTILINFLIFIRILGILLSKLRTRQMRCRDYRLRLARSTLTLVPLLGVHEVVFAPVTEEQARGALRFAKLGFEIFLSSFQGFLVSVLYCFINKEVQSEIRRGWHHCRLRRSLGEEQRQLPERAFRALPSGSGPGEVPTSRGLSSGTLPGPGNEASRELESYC

For test [6], the target named is human glucagon receptor (human, UniProt P47871 26-477).
Chain of human glucagon receptor (P47871 26-477): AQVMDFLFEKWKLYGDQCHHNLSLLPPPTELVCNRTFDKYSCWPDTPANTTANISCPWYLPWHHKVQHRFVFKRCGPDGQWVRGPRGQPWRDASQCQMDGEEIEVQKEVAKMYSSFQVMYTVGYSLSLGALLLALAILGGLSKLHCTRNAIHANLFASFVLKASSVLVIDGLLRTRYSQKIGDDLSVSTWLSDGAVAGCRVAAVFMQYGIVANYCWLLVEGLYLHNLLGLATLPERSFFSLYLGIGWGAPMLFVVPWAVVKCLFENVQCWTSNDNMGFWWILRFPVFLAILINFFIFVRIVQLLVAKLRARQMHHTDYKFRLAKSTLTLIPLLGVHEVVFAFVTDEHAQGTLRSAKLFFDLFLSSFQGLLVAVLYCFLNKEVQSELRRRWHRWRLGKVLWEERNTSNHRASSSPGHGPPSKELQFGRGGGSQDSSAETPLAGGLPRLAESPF

B1: Example 437 (peptide)
peptide: YXEGTXTSDXXIXLDXKAQXKXIXXLIEGGPSSGAPPPS
modifications: Y-Aib-EGT-αMeF(2F)-TSD-4Pal-Aib-I-αMeL-LD-Orn-K((2-[2-(2-Amino-ethoxy)-ethoxy]-acetyl)3-(γ-Glu)-CO-(CH2)10-CH3)AQ-Aib-K((2-[2-(2-Amino-ethoxy)-ethoxy]-acetyl)3-(γ-Glu)-CO-(CH2)10-CH3)-αMeF-I-(D-Glu)-αMeY-LIEGGPSSGAPPPS-NH2
Turning to B1, the cAMP EC50 in test [1] was above 9.95 µM; in test [2], 14.6 pM; in test [3], 0.249 nM. For the same molecule, the cAMP Emax came out at 94.8% in test [2] and 89.2% in test [3]. In addition, the entries for the “cAMP EC50 (1.0% HSA)” value in test [4], in test [5] and in test [6] were 9.65 nM, 0.461 nM and above 9.95 µM, respectively. For the same molecule, the “cAMP Emax (1.0% HSA)” value in test [4] is 91.2%; in test [5] it was 96.5%.

B2: Example 429 (peptide)
peptide: YXEGTXTSDKXIXLDXKAQXEXIXXLIEGGPSSGAPPPS
modifications: Y-Aib-EGT-αMeF(2F)-TSDK((2-[2-(2-Amino-ethoxy)-ethoxy]-acetyl)2-(γ-Glu)-CO-(CH2)10-CH3)-Aib-I-αMeL-LD-Orn-K((2-[2-(2-Amino-ethoxy)-ethoxy]-acetyl)2-(γ-Glu)-CO-(CH2)10-CH3)AQ-Aib-E-αMeF-I-(D-Glu)-αMeY-LIEGGPSSGAPPPS-NH2
As for B2, the results for the cAMP EC50 in test [1], in test [2] and in test [3] were above 9.95 µM, 7.99 pM and 0.116 nM, respectively. In addition, the cAMP Emax in test [2] was found to be 108%; in test [3], 116%. For the same molecule, the entries for the “cAMP EC50 (1.0% HSA)” value in test [4], in test [5] and in test [6] were 17.3 nM, 1.03 nM and above 9.95 µM, respectively. In test [5], the “cAMP Emax (1.0% HSA)” value is 93.3%.

B3: Example 436 (peptide)
peptide: YXEGTXTSDKXIXLDXKAQXEXIXXLIEGGPSSGAPPPS
modifications: Y-Aib-EGT-αMeF(2F)-TSDK((2-[2-(2-Amino-ethoxy)-ethoxy]-acetyl)3-(γ-Glu)-CO-(CH2)10-CH3)-Aib-I-αMeL-LD-Orn-K((2-[2-(2-Amino-ethoxy)-ethoxy]-acetyl)3-(γ-Glu)-CO-(CH2)10-CH3)AQ-Aib-E-αMeF-I-(D-Glu)-αMeY-LIEGGPSSGAPPPS-NH2
Take B3: the cAMP EC50 in test [1] is above 9.95 µM; in test [2], 7.14 pM; in test [3], 0.102 nM. For the same molecule, the figures for the cAMP Emax in test [2] and in test [3] were 102% and 98.9%, respectively. Besides, the “cAMP EC50 (1.0% HSA)” value in test [4] is 4.98 nM; in test [5], 0.241 nM; in test [6], above 9.95 µM. In test [5], the “cAMP Emax (1.0% HSA)” value was 96%.

B4: Example 422 (peptide)
peptide: YXEGTXTSDXXIXLDXKAQXKFIXXLIEGGPSSGAPPPS
modifications: Y-Aib-EGT-αMeF(2F)-TSD-4Pal-Aib-I-αMeL-LD-Orn-K((2-[2-(2-Amino-ethoxy)-ethoxy]-acetyl)3-(γ-Glu)-CO-(CH2)10-CH3)AQ-Aib-K((2-[2-(2-Amino-ethoxy)-ethoxy]-acetyl)3-(γ-Glu)-CO-(CH2)10-CH3)FI-(D-Glu)-αMeY-LIEGGPSSGAPPPS-NH2
For B4, the cAMP EC50 in test [1] was above 9.95 µM; in test [2], 6.55 pM; in test [3], 0.0729 nM. For the same molecule, the figures for the cAMP Emax in test [2] and in test [3] were 104% and 106%, respectively. Moreover, the figures for the “cAMP EC50 (1.0% HSA)” value in test [4], in test [5] and in test [6] were 3.84 nM, 0.199 nM and above 9.95 µM, respectively. Further, the “cAMP Emax (1.0% HSA)” value in test [5] came out at 97.5%.

B5: Example 434 (peptide)
peptide: YXEGTXTSDXXIXLDXKAQXXFIXXLIKGGPSSGAPPPS
modifications: Y-Aib-EGT-αMeF(2F)-TSD-4Pal-Aib-I-αMeL-LD-Orn-K((2-[2-(2-Amino-ethoxy)-ethoxy]-acetyl)3-(γ-Glu)-CO-(CH2)10-CH3)AQ-Aib-Orn-FI-(D-Glu)-αMeY-LIK((2-[2-(2-Amino-ethoxy)-ethoxy]-acetyl)3-(γ-Glu)-CO-(CH2)10-CH3)GGPSSGAPPPS-NH2
As for B5, the results for the cAMP EC50 in test [1], in test [2] and in test [3] were above 9.95 µM, 7.04 pM and 0.0837 nM, respectively. The results for the cAMP Emax in test [2] and in test [3] were 98.3% and 104%, respectively. Moreover, the entries for the “cAMP EC50 (1.0% HSA)” value in test [4], in test [5] and in test [6] were 1.73 nM, 0.0994 nM and above 9.95 µM, respectively. For the same molecule, the “cAMP Emax (1.0% HSA)” value in test [5] is 97.5%.

B6: Example 445 (peptide)
peptide: YXEGTXTSDKXIXLDGKAQXEFIXXLIEGGPSSGAPPPS
modifications: Y-Aib-EGT-αMeF(2F)-TSDK((2-[2-(2-Amino-ethoxy)-ethoxy]-acetyl)2-(γ-Glu)-CO-(CH2)10-CH3)-Aib-I-αMeL-LDGK((2-[2-(2-Amino-ethoxy)-ethoxy]-acetyl)2-(γ-Glu)-CO-(CH2)10-CH3)AQ-Aib-EFI-(D-Glu)-αMeY-LIEGGPSSGAPPPS-NH2
As to B6, the values for the cAMP EC50 in test [1], in test [2] and in test [3] were above 9.95 µM, 7.28 pM and 0.0781 nM, respectively. Further, the figures for the cAMP Emax in test [2] and in test [3] were 102% and 103%, respectively. For the same molecule, the “cAMP EC50 (1.0% HSA)” value in test [4] is 13.1 nM; in test [5] it was 1.17 nM; in test [6] it was above 9.95 µM. For the same molecule, the “cAMP Emax (1.0% HSA)” value is 100% in test [4] and 91.4% in test [5].

B7: Example 426 (peptide)
peptide: YXEGTXTSDXXIXLDXKAQXKFIXXLIEGGPSSGAPPPS
modifications: Y-Aib-EGT-αMeF(2F)-TSD-4Pal-Aib-I-αMeL-LD-Orn-K((2-[2-(2-Amino-ethoxy)-ethoxy]-acetyl)-(γ-Glu)-CO-(CH2)10-CH3)AQ-Aib-K((2-[2-(2-Amino-ethoxy)-ethoxy]-acetyl)-(γ-Glu)-CO-(CH2)10-CH3)FI-(D-Glu)-αMeY-LIEGGPSSGAPPPS-NH2
Consider B7, for which the values for the cAMP EC50 in test [1], in test [2] and in test [3] were above 9.95 µM, 19.1 pM and 0.206 nM, respectively. For the same molecule, the cAMP Emax in test [2] amounted to 93.3%; in test [3], 97.2%. The “cAMP EC50 (1.0% HSA)” value was 29.7 nM in test [4], 3.88 nM in test [5] and above 9.95 µM in test [6]. In test [5], the “cAMP Emax (1.0% HSA)” value came out at 91.2%.

B8: Example 430 (peptide)
peptide: YXEGTXTSDXXIXLDXKAQXKXIXXLIEGGPSSGAPPPS
modifications: not fully specified; Y-Aib-EGT-αMeF(2F)-TSD-4Pal-Aib-I-αMeL-LD-Orn-K((2-[2-(2-Amino-ethoxy)-ethoxy]-acetyl)2-(γ Glu)-CO-(CH2)10H3)AQ-Aib-K((2-[2-(2-Amino-ethoxy)-ethoxy]-acetyl)2-(γGlu)-CO-(CH2)10C3)-αMeFI-(D-Glu)-αMeY-LIEGGPSSGAPPPS-NH2
With B8, the cAMP EC50 is above 9.95 µM in test [1], 17.5 pM in test [2] and 0.342 nM in test [3]. Besides, the cAMP Emax came out at 107% in test [2] and 93.1% in test [3]. Besides, the entries for the “cAMP EC50 (1.0% HSA)” value in test [4], in test [5] and in test [6] were 26.8 nM, 1.09 nM and above 9.95 µM, respectively. Moreover, the “cAMP Emax (1.0% HSA)” value stood at 88.5% in test [4] and 91.5% in test [5].

B9: Example 438 (peptide)
peptide: YXEGTXTSDXXIXLDXKAQXEXIXXLIKGGPSSGAPPPS
modifications: Y-Aib-EGT-αMeF(2F)-TSD-4Pal-Aib-I-αMeL-LD-Orn-K((2-[2-(2-Amino-ethoxy)-ethoxy]-acetyl)3-(γ-Glu)-CO-(CH2)10-CH3)AQ-Aib-E-αMeF-I-(D-Glu)-αMeY-LIK((2-[2-(2-Amino-ethoxy)-ethoxy]-acetyl)3-(γ-Glu)-CO-(CH2)10-CH3)GGPSSGAPPPS-NH2
Turning to B9, the cAMP EC50 in test [1] was above 9.95 µM; in test [2], 15.7 pM; in test [3], 0.471 nM. The cAMP Emax in test [2] is 98.9%; in test [3] it was 88.5%. The entries for the “cAMP EC50 (1.0% HSA)” value in test [4], in test [5] and in test [6] were 28 nM, 0.592 nM and above 9.95 µM, respectively. For the same molecule, the figures for the “cAMP Emax (1.0% HSA)” value in test [4] and in test [5] were 88.7% and 90.8%, respectively.
